As usually defined, the stoichiometry N is a count of units in the complex or per binding partner.

This is an account of results in paper PMC8315899 (Nature structural & molecular biology, 2021).

This series deals with the molecule itself. Description: cryo-EM structure.

B1: STRN3 (striatin 3), recombinant (natural protein, human, UniProt Q13033-2 1-713, looked up)
chain: MDELAGGGGGGPGMAAPPRQQQGPGGNLGLSPGGNGAAGGGGPPASEGAGPAAGPELSRPQQYTIPGILHYIQHEWARFEMERAHWEVERAELQARIAFLQGERKGQENLKKDLVRRIKMLEYALKQERAKYHKLKYGTELNQGDLKMPTFESEETKDTEAPTAPQNSQLTWKQGRQLLRQYLQEVGYTDTILDVRSQRVRSLLGLSNSEPNGSVETKNLEQILNGGESPKQKGQEIKRSSGDVLETFNFLENADDSDEDEENDMIEGIPEGKDKHRMNKHKIGNEGLAADLTDDPDTEEALKEFDFLVTAEDGEGAGEARSSGDGTEWAEPITFPSGGGKSFIMGSDDVLLSVLGLGDLADLTVTNDADYSYDLPANKDAFRKTWNPKYTLRSHFDGVRALAFHPVEPVLVTASEDHTLKLWNLQKTVPAKKSASLDVEPIYTFRAHIGPVLSLAISSNGEQCFSGGIDATIQWWNMPSPSVDPYDTYEPNVLAGTLVGHTDAVWGLAYSGIKNQLLSCSADGTVRLWNPQEKLPCICTYNGDKKHGIPTSVDFIGCDPAHMVTSFNTGSAVIYDLETSQSLVILSSQVDSGLQSNNHINRVVSHPTLPVTITAHEDRHIKFFDNKTGKMIHSMVAHLDAVTSLAVDPNGIYLMSGSHDCSIRLWNLDSKTCVQEITAHRKKLDESIYDVAFHSSKAYIASAGADALAKVFV
B1: the “stoichiometry N” value amounted to 4.
